Results as given in patent US20240101684A1 (AIMED BIO, published 2024).
Changes are numbered by the printed parent chain.

Columns and labels:
[1] = molecular target: T1, human FGFR3 IIIc recombinant protein (766-FR-050, R&D) (human, UniProt P22607 23-375); test: SPR, table under the sensorgrams, column KD, row FGFR3-IIIc Human; unit inferred
T1 construct: Bought recombinant antigen; also called FGFR3-IIIc (Human)
T1 sequence (looked up): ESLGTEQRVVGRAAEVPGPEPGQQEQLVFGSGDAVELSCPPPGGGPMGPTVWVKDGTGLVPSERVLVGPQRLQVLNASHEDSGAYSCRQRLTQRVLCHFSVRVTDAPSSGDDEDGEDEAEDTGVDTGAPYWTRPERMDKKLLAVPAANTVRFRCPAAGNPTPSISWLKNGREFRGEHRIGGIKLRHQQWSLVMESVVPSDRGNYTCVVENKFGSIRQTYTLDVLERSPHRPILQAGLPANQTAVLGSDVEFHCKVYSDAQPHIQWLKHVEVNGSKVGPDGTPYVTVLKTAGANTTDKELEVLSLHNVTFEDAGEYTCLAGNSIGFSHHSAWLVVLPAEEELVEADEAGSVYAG

[2] = molecular target: T2, human FGFR3 IIIb recombinant protein (1264-FR-050, R&D) (human, UniProt P22607-2 23-377); test: direct-binding ELISA on rhFGFR3-IIIb, 1' screening (row head prints IC50)
T2 construct: Bought recombinant antigen; also called rhFGFR3-IIIb; FGFR3-IIIb (Human)
T2 sequence (looked up): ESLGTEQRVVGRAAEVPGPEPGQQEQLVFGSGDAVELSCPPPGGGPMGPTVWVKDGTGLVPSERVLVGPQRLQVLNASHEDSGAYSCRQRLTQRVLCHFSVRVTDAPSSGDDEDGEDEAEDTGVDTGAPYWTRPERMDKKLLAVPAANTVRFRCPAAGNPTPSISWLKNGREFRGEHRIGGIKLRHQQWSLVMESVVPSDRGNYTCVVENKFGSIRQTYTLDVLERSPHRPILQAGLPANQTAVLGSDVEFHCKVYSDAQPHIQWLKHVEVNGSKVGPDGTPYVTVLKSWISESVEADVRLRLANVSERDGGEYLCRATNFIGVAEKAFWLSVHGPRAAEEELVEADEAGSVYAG

Domain#3 [3] = molecular target: T3, Domain#3 (human, UniProt P22607); test: ELISA on Fc-tagged FGFR3 constructs (FGFR3 domain mapping), bar Domain#3
T3 construct: single domain fused to human IgG1 Fc; also called FGFR3 Domain 3; FGFR3 Ig domain III with Fc tag
T3 sequence (Fc fusion chain): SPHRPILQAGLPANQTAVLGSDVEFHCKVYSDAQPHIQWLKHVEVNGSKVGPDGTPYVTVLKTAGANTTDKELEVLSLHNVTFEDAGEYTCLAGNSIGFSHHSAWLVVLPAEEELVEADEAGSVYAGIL
Experimental: (§1) Affinity ELISA was performed to determine the binding ability of the produced antibody (IgG) to the FGFR3 antigen. A 96-well plate (4° C., overnight) was coated with […] of FGFR3 antigen and blocked with 3% skim milk (PBS) (room temperature, 1 hour). Then, the plate was treated with previously serially diluted antibody samples in duplicate and triplicate, and reacted at room temperature for 1 hour. Then, the result was washed with PBST 2 to 3 times, treated with the HRP-conjugated anti-human Fab antibody diluted in skim milk (room temperature, 1 hour), and washed again with PBST, and a color reaction (TMB substrate) was performed. Then, O.D. was measured at 450 nm.
FGFR3 is composed of three domains, so each domain (FGFR3 Ig domain I, domain II, domain III) is attached with an Fc tag to analyze the FGFR3-binding domain of the discovered antibody, and produced and purified through a mammalian cell protein expression system (FIG. 9C). Analysis of the binding ability of the antibody to the purified domain was performed in the same manner as the ELISA described above. 1 μg/ml of an antigen was coated and treated with the antibody to induce a TMB color reaction. […] However, the epitope of the comparative antibody is included in domain No. 2, which was conducted according to the present invention. […]

[4] = molecular target: T2, human FGFR3 IIIb recombinant protein …; test: direct-binding ELISA on rhFGFR3-IIIb, 2' screening, plate 1 (row head prints IC50)
[5] = molecular target: T4, monkey FGFR3 recombinant protein (90313-C02H, Sino Biological) (cynomolgus monkey, UniProt A0A2K5V1U5 23-376); test: SPR, table under the sensorgrams, column KD, row FGFR3 Monkey; unit inferred
T4 construct: Bought recombinant antigen; also called cynomolgus monkey FGFR3; cyno FGFR3
T4 sequence: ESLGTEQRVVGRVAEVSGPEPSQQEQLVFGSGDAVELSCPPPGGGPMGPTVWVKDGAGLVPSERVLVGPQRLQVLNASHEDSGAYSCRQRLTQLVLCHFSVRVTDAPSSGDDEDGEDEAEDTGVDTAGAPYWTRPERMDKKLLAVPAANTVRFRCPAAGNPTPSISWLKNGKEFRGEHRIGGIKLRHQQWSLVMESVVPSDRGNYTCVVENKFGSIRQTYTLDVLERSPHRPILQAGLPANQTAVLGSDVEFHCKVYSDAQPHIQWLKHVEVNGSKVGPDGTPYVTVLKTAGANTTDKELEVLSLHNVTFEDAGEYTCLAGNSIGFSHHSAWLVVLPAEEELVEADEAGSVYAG

[6] = molecular target: T5, FGFR3 Ig domain II with Fc tag (UniProt P22607 151-244); test: FGFR3 Domain ELISA, AMB302#1, bar Domain#2
T5 construct: domain: FGFR3 Ig domain II; Recombinant domain made in mammalian cells; also called domain No. 2
T5 sequence: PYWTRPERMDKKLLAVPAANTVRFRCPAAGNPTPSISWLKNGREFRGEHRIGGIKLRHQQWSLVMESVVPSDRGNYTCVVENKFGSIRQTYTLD
Experimental: (§2) FGFR3 is composed of three domains, so each domain (FGFR3 Ig domain I, domain II, domain III) is attached with an Fc tag to analyze the FGFR3-binding domain of the discovered antibody, and produced and purified through a mammalian cell protein expression system (FIG. 9C). Analysis of the binding ability of the antibody to the purified domain was performed in the same manner as the ELISA described above. 1 μg/ml of an antigen was coated and treated with the antibody to induce a TMB color reaction. […] However, the epitope of the comparative antibody is included in domain No. 2, which was conducted according to the present invention. In addition, ligands of FGF1 and FGF9, and FGFR3 have been reported to bind to Ig domain II and domain III of FGFR3. Based on this, competition ELISA assay was conducted. […] This supports binding of F309 antibody to the aforementioned FGFR3 Ig domain I (FIG. 9A).
(§3) The epitope domain mapping performed above was also performed on the affinity matured antibody F309 #SSM236 (hereinafter referred to as AMB302 #1.2). […] The antibody was also found to have specific binding ability to human/cyno FGFR3 (FIG. 17).

[7] = molecular target: T2, human FGFR3 IIIb recombinant protein …; test: SPR, table under the sensorgrams, column KD, row FGFR3-IIIb Human; unit inferred
[8] = molecular target: T2, human FGFR3 IIIb recombinant protein …; test: direct-binding ELISA on rhFGFR3-IIIb, 2' screening, plate 2 (row head prints IC50); 2' screening, Plate2
[9] = molecular target: T2, human FGFR3 IIIb recombinant protein …; test: direct-binding ELISA on rhFGFR3-IIIb, 1' screening (row head prints IC50); 1' screening
[10] = molecular target: T4, monkey FGFR3 recombinant protein …; test: SPR (Biacore), antigen immobilised 92 RU, antibody injected
[11] = molecular target: T5, FGFR3 Ig domain II with Fc tag; test: FGFR3 Domain ELISA, AMB302#1.2, bar Domain#2
Experimental: as §2, §3

[12] = molecular target: T1, human FGFR3 IIIc recombinant protein …; test: ELISA on humanFGFR3-IIIc
Experimental: as §1
(§4) The binding ability of the produced antibody (IgG) to human FGFR3 IIIb (1264-FR-050, R&D), IIIc (766-FR-050, R&D), mouse FGFR3 (9089-FR, R&D), and monkey FGFR3 (90313-C02H, Sino Biological) antigens was determined in the same manner as above.
as §3

[13] = molecular target: T1, human FGFR3 IIIc recombinant protein …; test: SPR (Biacore), antigen immobilised 74.5 RU, antibody injected
[14] = molecular target: T6, FGFR3 recombinant protein (isoform not given) (Homo sapiens (Human), UniProt P22607 23-375, limits assumed); test: affinity ELISA on hFGFR3, lower left panel
T6 construct: also called FGFR3 antigen
T6 sequence: T1 sequence (looked up)
Experimental: as §1
The antigen affinity of the synthesized ADC sample (TOPOI-conjugated ADC) was determined by ELISA and the determination was performed in the same manner as the affinity ELISA performed in the present invention. […] In addition, the high purity physical properties of the prepared ADC were identified through SEC-HPLC analysis.

[15] = molecular target: T4, monkey FGFR3 recombinant protein …; test: ELISA on cynoFGFR3
Experimental: as §1, §4, §3

Domain#3 [16] = molecular target: T3, Domain#3; test: FGFR3 Domain ELISA, AMB302#1.2, bar Domain#3
Experimental: as §2, §3

[17] = molecular target: T2, human FGFR3 IIIb recombinant protein …; test: SPR (Biacore), antigen immobilised 276.2 RU, antibody injected

B1: F309 (antibody, V domains shown)
VH: EVQLLESGGGLVQPGGSLRLSCAASGFTFSSYDMSWVRQAPGKGLEWVSGIYSGDGSIYYADSVKGRFTISRDNSKNTLYLQMNSLRAEDTAVYYCAKDAPTNEMSRFDYWGQGTLVTVSS
VL: QSVLTQPPSASGTPGQRVTISCSGSSSNIGNNYVSWYQQLPGTAPKLLIYADSKRPSGVPDRFSGSKSGTSASLAISGLRSEDEADYYCASWDYSLSGYVFGGGTKLTVL
notes: also called F309 antibody; F309 clone
Kd [1]: 11.1 nM | EC50 [2]: 0.67 nM | binding result (Domain#3 [3]): no binding | EC50 [4]: 80.4 nM | Kd [5]: 32.8 nM | binding result [6]: no binding | Kd [7]: 10.4 nM | EC50 [8]: 67 nM

B2: F309#SSM001 (antibody, V domains shown)
VH: B1 VH with A100Y
VL: B1 VL
EC50 [9]: 2190 nM

B3: F309#SSM236 (antibody, V domains shown)
VH: B1 VH with A100G, T102M, M105E
VL: B1 VL
notes: also called AMB302 #1.2; AMB302#1.2
Kd [10]: 0.755 nM | EC50 [4]: 0.753 nM | binding result [11]: no binding | EC50 (read off the curve) [12]: ~0.3 nM | Kd [13]: 0.309 nM | EC50 (read off the curve) [14]: ~0.4 nM | EC50 (read off the curve) [15]: ~0.3 nM | binding result (Domain#3 [16]): no binding | Kd [17]: 0.59 nM
